Laboratory results reported in article PMC9930174 (2022).

Key:
[1] = target: T1, α-myosin (MYH6) peptide on H-2Kb (mouse); assay: activation reporter or marker
T1 peptide: VIQYFASI

[2] = target: T2, α-myosin (MYH6) peptide on H-2Kb (mouse); assay: activation reporter or marker
T2 peptide: VQQVYYSI

[3] = target: T3, α-myosin (MYH6) peptide on HLA-A*03:01 (human); assay: multimer staining
T3 peptide: RINATLETK

[4] = target: T4, α-myosin (MYH6) peptide on HLA-A*24:02 (human); assay: multimer staining
T4 peptide: RINATLETK

B1: TCR-B (TCR)
alpha TRAV13-1 TRAJ22 CDR3: CALERASGSWQLIF
beta TRBV15 TRBJ2-7 CDR3: CASSLRRGEQYF
[1]
  binding result: recognises

B2: TCR-C (TCR)
alpha TRAV6D-6 TRAJ39 CDR3: CALGDRNNAGAKLTF
beta TRBV12-2 TRBJ2-5 CDR3: CASSLGGTVQDTQYF
[2]
  binding result: recognises

B3: TCR-Pt1 (TCR)
alpha TRAV19 TRAJ32 CDR3: CALSDRYGGATNKLIF
beta TRBV9 TRBJ2-6 CDR3: CASSPYQSSGANVLTF
[3]
  binding result: recognises
[4]
  binding result: no recognition
